B1: 2.998.2 (antibody, V domains shown)
VH: QLQLQESGPGLVKPSETLSLTCTVSGDSISSFIYYWGWIRQPPGKGLEWIGTIYYSGSTYYNPSLKSRVTISVDTSKNQFSLKLRSVTAADTAVYYCARHHWVFDYWGQGTQVTVSS
VL: DIVLTQFPDFQSVTPKEKVTITCRASQVIGSSLHWYQQKPDQSPKLLIKYASQSFSGVPSRFSGSGSGTDFTLTINSLEVEDAATYYCHQSTILPWTFGQGTKVEVK
notes: identified by its values; also called mAb 2.998.2
B2: 2.84.3 (antibody, V domains shown)
VH: B1 VH with D27G, S28F, F32S, I33S, S58T, P63S, K77Q, R85S, Q112L
VL: EVVLTQSPDFQSVTPKEKITITCRASQIIGTSLHWYQKKPDQSPKLLIKYASQSFSGVPSRFSGSGSGTEFTLTINSLEAEDTATYYCHQSTNLPWTFGQGTKVEIK
B3: 2.449.1.3 (antibody, V domains shown)
VH: QVQLVESGGGLVKPGGSLRLSCAASGFTFSDYYMNWIRQAPGKGLEWVSYISSSGSIIYYADSVKGRFTISRDNAKNSLYLQMNSLRAEDTAVYYCAREGRIAARGMDVWGQGTTVTVSS
VL: DIQMTQSPSSLSASVGDRVSITCRPSQSFSRYINWYQQKPGKAPKLLIHAASSLVGGVPSRFSGSGSGTDFTLTISSLQPEDFATYYCQQTYSNPPITFGQGTRLEMK
notes: identified by its values; also called mAb 2.449.1.3
B4: 2.998.2 (antibody, V domains shown)
VH: B1 VH
VL: B1 VL
B5: 2.84.3 (antibody, V domains shown)
VH: B1 VH with D27G, S28F, F32S, I33S, S58T, P63S, K77Q, R85S, Q112L
VL: B2 VL
B6: 2.175.3 (antibody, V domains shown)
VH: QVHLVESGGGLVKPGGSLRLSCAASGFTFSDYYMHWIRQAPGKGLEWVSYISRSGSLIYYVDSVKGRFTISRDNAKNSLNLQMNSLRAEDTAVYYCARGGPYSGSPFDYWGQGTLVTVSS
VL: DIQMTQSPSSLSASVGDRVTITCRPSQRISRYLNWYQQKPGKAPKFLIYAASSLPSGVPSRFSGSGSGTDFTLTISTLQPEDFATYYCQQSYSTPPWTFGQGTKVEIK
B7: 2.449.1.3 (antibody, V domains shown)
VH: B3 VH
VL: B3 VL
notes: also called 2.449.1.3 (control)
B8: 2.175.3 variant A (antibody, V domains shown)
VH: B6 VH with H3Q, N80Y
VL: B6 VL with F46L, T77S
B9: 2.449.1 variant A (antibody, V domains shown)
VH: B3 VH
VL: B3 VL with H49Y, M107I
notes: also called 2.449.1.3 Variant A; 2.449.1.3 variant A
B10: 2.175.3 (antibody, V domains shown)
VH: B6 VH
VL: B6 VL
notes: Variable regions only
B11: 2.1623.2 (antibody, V domains shown)
VH: B3 VH with Y50F, I57T, E99D, R101H
VL: B3 VL with S20T, P25A, H49Y, V55Q, T74A, N94T, M107I
notes: Variable regions only
B12: 2.1853.3 (antibody, V domains shown)
VH: B3 VH with E99D, A103V
VL: DIQMTQSPSSLCASVGDRVTITCRASRSITRYLNWYQQKPGKAPKLLIYGASSLQSGVPSRFSGSGSGTDFTLTISSLQPEDFATYYCQQSYSTPPITFGQGTRLEIK
notes: Variable regions only
B13: 2.351.3 (antibody, V domains shown)
VH: QVQLVQSGAEVKKPGASVKVSCKASGYTFIGYYLHWVRQAPGQGLEWMGSINPNSGGTNYAQKFQGRVTMIRDTSINTAYMELSRLRSDDTAVYYCARDKRITMVRGVHYLYYGWDVWGQGTTVTVSS
VL: DIQMTQSPSSLSASVGDRVTITCRASQVISNYLAWYQQKPGKVPQLLIYAASTLQSGVPSRFSGSGSGTDFTLTISSLQPEDVATYYCQNYKSAPWTFGQGTKVEIK

Positions count from the first letter of the chain named. “And” between values parts separate entries of the source, which are not always exact repeats. Identical values can stand only once.

Sequence of CSF-1R (P07333 20-512 limits assumed): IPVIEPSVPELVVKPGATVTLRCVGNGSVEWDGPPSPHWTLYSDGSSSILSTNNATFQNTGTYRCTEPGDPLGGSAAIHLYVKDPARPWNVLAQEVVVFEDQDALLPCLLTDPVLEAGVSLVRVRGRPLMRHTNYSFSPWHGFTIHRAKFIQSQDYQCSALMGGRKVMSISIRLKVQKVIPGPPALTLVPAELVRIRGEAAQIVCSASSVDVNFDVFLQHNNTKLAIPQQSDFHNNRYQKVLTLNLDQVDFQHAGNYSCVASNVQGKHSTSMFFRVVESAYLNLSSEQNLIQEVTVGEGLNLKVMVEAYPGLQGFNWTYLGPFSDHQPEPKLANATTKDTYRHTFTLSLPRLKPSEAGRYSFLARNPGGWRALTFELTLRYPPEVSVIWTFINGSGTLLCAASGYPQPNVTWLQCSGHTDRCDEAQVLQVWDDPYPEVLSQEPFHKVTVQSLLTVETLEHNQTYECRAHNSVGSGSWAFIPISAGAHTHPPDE
Sequence of PDGFR-beta (P09619 33-530 limits assumed): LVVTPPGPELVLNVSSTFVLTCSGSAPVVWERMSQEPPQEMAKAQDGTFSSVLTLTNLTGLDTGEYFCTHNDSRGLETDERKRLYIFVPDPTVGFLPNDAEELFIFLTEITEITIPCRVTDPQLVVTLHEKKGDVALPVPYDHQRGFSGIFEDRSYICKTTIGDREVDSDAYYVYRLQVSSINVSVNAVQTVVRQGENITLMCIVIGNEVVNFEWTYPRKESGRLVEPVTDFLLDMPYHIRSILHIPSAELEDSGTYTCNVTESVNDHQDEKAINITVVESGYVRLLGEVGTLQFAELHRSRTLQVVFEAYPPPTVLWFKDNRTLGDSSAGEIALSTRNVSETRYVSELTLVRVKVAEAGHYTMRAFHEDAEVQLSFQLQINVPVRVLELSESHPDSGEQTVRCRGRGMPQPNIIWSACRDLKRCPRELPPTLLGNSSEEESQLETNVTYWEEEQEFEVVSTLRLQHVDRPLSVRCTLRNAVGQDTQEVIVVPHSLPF
T1 sequence (P16234 24-1089): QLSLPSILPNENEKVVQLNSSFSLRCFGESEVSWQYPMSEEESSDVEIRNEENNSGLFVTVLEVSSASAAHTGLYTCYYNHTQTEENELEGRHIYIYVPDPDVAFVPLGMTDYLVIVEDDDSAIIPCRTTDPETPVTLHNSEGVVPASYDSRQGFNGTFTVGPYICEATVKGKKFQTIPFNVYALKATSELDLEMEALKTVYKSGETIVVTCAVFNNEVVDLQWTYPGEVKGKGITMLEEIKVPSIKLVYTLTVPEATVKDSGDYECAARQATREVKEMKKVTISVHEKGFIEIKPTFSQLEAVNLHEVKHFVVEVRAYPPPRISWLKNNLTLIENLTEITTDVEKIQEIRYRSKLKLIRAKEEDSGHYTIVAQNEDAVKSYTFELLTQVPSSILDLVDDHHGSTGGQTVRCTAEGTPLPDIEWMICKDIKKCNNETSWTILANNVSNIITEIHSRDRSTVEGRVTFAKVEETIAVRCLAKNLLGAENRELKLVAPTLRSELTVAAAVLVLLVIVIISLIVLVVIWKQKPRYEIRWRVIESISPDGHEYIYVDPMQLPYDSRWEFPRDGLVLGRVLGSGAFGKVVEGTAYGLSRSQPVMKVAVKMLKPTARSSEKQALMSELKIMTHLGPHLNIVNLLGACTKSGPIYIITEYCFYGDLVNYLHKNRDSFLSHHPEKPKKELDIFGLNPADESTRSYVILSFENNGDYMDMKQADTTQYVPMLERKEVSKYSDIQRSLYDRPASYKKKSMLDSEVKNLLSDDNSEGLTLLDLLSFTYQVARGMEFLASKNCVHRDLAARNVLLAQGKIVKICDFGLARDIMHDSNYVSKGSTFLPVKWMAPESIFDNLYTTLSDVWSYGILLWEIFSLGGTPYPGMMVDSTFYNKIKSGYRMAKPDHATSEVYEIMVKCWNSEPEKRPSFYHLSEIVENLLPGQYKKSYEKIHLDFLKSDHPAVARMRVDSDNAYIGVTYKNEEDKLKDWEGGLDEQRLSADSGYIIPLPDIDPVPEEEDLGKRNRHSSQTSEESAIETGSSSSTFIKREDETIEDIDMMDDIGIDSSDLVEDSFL
T5 sequence (P26618 25-1089): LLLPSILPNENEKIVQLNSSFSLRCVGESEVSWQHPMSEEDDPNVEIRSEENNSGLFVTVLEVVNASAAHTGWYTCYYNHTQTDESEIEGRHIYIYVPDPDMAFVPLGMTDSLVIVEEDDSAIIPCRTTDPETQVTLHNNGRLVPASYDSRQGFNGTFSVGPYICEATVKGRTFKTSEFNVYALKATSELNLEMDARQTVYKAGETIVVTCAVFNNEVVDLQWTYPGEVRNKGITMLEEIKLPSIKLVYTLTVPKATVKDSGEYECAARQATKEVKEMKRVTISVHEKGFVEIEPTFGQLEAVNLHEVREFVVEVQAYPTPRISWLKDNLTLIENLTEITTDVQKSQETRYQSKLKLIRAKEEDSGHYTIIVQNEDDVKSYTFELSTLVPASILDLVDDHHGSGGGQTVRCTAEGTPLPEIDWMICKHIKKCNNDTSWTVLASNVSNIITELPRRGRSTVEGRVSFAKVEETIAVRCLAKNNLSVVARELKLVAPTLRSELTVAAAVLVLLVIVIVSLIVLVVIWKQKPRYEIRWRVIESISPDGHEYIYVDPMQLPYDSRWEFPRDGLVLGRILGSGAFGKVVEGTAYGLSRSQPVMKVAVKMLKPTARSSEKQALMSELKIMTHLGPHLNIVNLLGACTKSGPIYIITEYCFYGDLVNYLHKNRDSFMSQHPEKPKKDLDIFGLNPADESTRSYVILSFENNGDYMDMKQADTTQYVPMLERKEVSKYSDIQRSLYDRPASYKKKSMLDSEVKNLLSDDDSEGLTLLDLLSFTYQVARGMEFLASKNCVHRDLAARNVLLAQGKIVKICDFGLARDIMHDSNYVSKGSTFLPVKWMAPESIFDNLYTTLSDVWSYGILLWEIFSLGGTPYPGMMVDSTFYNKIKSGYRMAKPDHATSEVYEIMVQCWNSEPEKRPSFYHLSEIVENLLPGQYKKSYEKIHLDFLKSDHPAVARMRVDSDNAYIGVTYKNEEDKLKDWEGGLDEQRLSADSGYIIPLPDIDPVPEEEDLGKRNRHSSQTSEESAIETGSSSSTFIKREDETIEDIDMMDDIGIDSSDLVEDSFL

The first experiment has as its target T1, PDGFR-alpha on human osteosarcoma MG-63 cells (human, UniProt P16234 24-1089).
T1 construct: whole, on cells; also called CD140a
The experiment can be described thus: FACS titration on MG-63 cells, 4 C, Cy5 goat anti-human detection.
By Kd is commonly meant the constant that tells how readily two partners part at equilibrium. B1: the Kd stood at 0.057 nM.

In turn, B2 registered a Kd of 0.227 nM.

Consider B3, for which the Kd stood at 0.052 nM.

The target of the next experiment is T2, PDGFR-alpha on MG-63 cells (human, UniProt P16234 24-1089). The experiment can be described thus: cell-based or functional assay.
T2 sequence (P16234 24-1089): as the sequence (P16234 24-1089) above
As for B4, the “Average pTyr Inhibition” value amounted to 99%.

Turning to B5, the “Average pTyr Inhibition” value came to 98%.

Take B6: the “Average pTyr Inhibition” value is 99%.

Regarding B7, the “Average pTyr Inhibition” value came out at 99%.

The target of another experiment is T2, PDGFR-alpha on MG-63 cells. In words: cell-based or functional assay. This is another data set of the same source.
On to B4, for which the “PROLIFERATION ASSAY: MG-63 CELLS, IC50” value turned out to be 2.1 nM.

Turning to B5, the “PROLIFERATION ASSAY: MG-63 CELLS, IC50” value is 481 ng/ml and 3.2 nM.

With B6, the “PROLIFERATION ASSAY: MG-63 CELLS, IC50” value was 0.37 nM.

On to B7, for which the “PROLIFERATION ASSAY: MG-63 CELLS, IC50” value was 1.57 nM.

The target in the next experiment is T2, PDGFR-alpha on MG-63 cells. The experiment can be described thus: FACS titration on MG-63 cells expressing PDGFR-alpha, 4 °C, Cy5 secondary antibody, nonlinear fit of geometric mean fluorescence.
B4 had a Kd of 0.057 nM.

Molecule B5 displayed a Kd of 0.227 nM.

Take B6: the Kd is 0.328 nM.

Regarding B7, the Kd was 0.052 nM and 0.053 nM.

In a further experiment the target is T3, Recombinant human sPDGFR-alpha (R&D catalog# 322-PR/CF) (human, UniProt P16234 24-528).
T3 construct: extracellular domain; Bought reagent; also called soluble PDGFRa; recombinant soluble PDGFR-alpha extracellular domain
T3 sequence (P16234 24-528): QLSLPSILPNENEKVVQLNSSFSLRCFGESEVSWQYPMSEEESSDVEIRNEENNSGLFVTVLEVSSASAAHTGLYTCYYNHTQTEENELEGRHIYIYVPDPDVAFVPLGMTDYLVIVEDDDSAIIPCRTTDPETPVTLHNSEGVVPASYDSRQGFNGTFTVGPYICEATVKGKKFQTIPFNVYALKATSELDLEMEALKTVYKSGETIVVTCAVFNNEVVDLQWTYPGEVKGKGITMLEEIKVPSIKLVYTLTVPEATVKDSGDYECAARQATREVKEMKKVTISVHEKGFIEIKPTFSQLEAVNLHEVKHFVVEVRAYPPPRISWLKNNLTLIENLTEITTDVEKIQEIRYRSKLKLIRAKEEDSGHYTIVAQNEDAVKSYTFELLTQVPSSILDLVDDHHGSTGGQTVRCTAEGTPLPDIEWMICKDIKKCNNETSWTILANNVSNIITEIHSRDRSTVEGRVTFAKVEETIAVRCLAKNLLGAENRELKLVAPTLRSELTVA
In words: soluble PDGFRa binding ELISA, plate coated with recombinant human PDGFR-alpha.
What is called IC50 is the midpoint of a concentration-inhibition curve. For B8, the IC50 came to 0.046 µg/mL.

Take B9: the IC50 came out at 0.045 µg/mL.

For B3, the IC50 amounted to 0.044 µg/mL.

In the next experiment the target is T4, Mouse PDGFRa on NIH3T3 cells (mouse, UniProt P26618 25-1089).
T4 construct: whole, on cells; also called endogenous PDGFRa of NIH3T3 murine fibroblasts
T4 sequence (P26618 25-1089): as the sequence (P26618 25-1089) above
In words: FACS on NIH3T3 cells, 10 ug/ml antibody.
Regarding B10, the binding result is “binds”.

For B11, the binding result is “binds”.

Consider B12, for which the binding result is “binds”.

The next experiment concerns the target T5, murine PDGFRa on NIH3T3 cells (murine, UniProt P26618 25-1089).
T5 construct: whole, on cells; also called mouse PDGFR-alpha
In words: FACS on NIH3T3 cells, goat anti-human IgG Cy5.
In the case of B1, the binding result is listed as “no binding (tested: 10 ug/ml)”.

Consider B2, for which the binding result was “no binding (tested: 10 ug/ml)”.

As to B13, the binding result is “no binding (tested: 10 ug/ml)”.

In the case of B3, the binding result is listed as “no binding (tested: 10 ug/ml)”.

A further experiment addresses T1, PDGFR-alpha on human osteosarcoma MG-63 …. In words: cell-based or functional assay.
With B8, the “PTYR Assay IC50” value turned out to be 0.029 µg/mL.

On to B9, for which the “PTYR Assay IC50” value came to 0.031 µg/mL.

As for B3, the “PTYR Assay IC50” value stood at 0.021 µg/mL.

For the next experiment the target is unchanged. The experiment can be described thus: cell-based or functional assay. The source holds these as a separate data set.
Take B1: the “Proliferation Assay: IC50 ng/ml (1-6-06)” value worked out at 308 ng/mL, the “Proliferation Assay: IC50 ng/ml (1-23-06)” value was 316 ng/mL, the “Proliferation Assay: IC50 (1-6-06)” value is 2.05 nM and the “Proliferation Assay: IC50 (1-23-06)” value came out at 2.1 nM. Moreover, the “pTyr Assay: % Inhibition @ 2 µg/ml” value worked out at 99%.

As to B2, the “Proliferation Assay: IC50 ng/ml (1-6-06)” value turned out to be 192 ng/mL, the “Proliferation Assay: IC50 ng/ml (1-23-06)” value was 481 ng/mL, the “Proliferation Assay: IC50 (1-6-06)” value turned out to be 1.3 nM and the “Proliferation Assay: IC50 (1-23-06)” value is 3.2 nM. Besides, the “pTyr Assay: % Inhibition @ 2 µg/ml” value stood at 98%.

For B13, the “Proliferation Assay: IC50 ng/ml (1-6-06)” value came to 1080 ng/mL, the “Proliferation Assay: IC50 ng/ml (1-23-06)” value came out at 649 ng/mL and the “pTyr Assay: % Inhibition @ 2 µg/ml” value was determined as 97%.

In the case of B3, the “Proliferation Assay: IC50 ng/ml (1-6-06)” value stood at 179 ng/mL, the “Proliferation Assay: IC50 ng/ml (1-23-06)” value turned out to be 237 ng/mL, the “Proliferation Assay: IC50 (1-6-06)” value is 1.2 nM and the “Proliferation Assay: IC50 (1-23-06)” value turned out to be 1.57 nM. In addition, the “pTyr Assay: % Inhibition @ 2 µg/ml” value is 99%.

In a further experiment the target is T3, Recombinant human sPDGFR-alpha (R&D …). The experiment can be described thus: Biacore T100 SPR, 22 C, mAb immobilised on CM5, sPDGFR-alpha injected, 1:1 fit. (Surface plasmon resonance follows binding to a sensor surface in real time, without labels.)
In general, koff refers to a measure of how fast the partners let go of each other. The kon is the second-order rate constant of association. Consider B1, for which the Kd turned out to be 0.164 nM, the koff is 4.89e-05 s⁻¹ and the kon is 298000 M⁻¹ s⁻¹.

Take B8: the Kd worked out at 0.0071 nM, the koff was 2.53e-06 s⁻¹ and the kon was 355000 M⁻¹ s⁻¹.

In the case of B9, the Kd was found to be 0.0086 nM, the koff was 3.8e-06 s⁻¹ and the kon stood at 440000 M⁻¹ s⁻¹.

B3: the Kd turned out to be 0.14 nM, the koff is 6.16e-05 s⁻¹ and the kon is 440000 M⁻¹ s⁻¹.

The target of the next experiment is c-kit (UniProt P10721 26-520, limits assumed). The experiment can be described thus: method not described.
Sequence of c-kit (P10721 26-520 limits assumed): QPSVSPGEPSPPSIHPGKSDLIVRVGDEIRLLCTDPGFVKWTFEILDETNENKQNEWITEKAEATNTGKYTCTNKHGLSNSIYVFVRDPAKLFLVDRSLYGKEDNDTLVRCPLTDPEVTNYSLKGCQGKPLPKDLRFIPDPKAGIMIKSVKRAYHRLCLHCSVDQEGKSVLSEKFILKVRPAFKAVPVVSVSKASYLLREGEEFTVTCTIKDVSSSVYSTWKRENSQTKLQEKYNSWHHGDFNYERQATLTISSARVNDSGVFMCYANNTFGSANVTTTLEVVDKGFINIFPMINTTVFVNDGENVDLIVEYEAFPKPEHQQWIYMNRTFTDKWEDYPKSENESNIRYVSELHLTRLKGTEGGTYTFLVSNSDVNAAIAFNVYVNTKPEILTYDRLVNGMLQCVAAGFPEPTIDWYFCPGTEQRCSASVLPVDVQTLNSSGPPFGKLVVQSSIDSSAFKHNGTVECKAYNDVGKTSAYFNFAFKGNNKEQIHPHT
Consider B10, for which the binding result is “no binding”.

For the molecule B11, the binding result was “no binding”.

Regarding B12, the binding result is recorded as “no binding”.

The next experiment concerns the target PDGFR-beta (UniProt P09619 33-530, limits assumed). In words: method not described.
For the molecule B10, the binding result is “no binding”.

As for B11, the binding result is listed as “no binding”.

As to B12, the binding result is recorded as “no binding”.

The next experiment addresses CSF-1R (UniProt P07333 20-512, limits assumed). In words: method not described.
On to B10, for which the binding result is “no binding”.

Regarding B11, the binding result was “no binding”.

Take B12: the binding result is given as “no binding”.

Another experiment concerns the target FLT3 (UniProt P36888 27-541, limits assumed). The experiment can be described thus: method not described.
Regarding B10, the binding result is “no binding”.

As to B11, the binding result was “no binding”.

Take B12: the binding result is given as “no binding”.

The record behind these values is patent US20090324601A1 (published 2009).
